{"source": "patent US20240409647A1", "about": "(SINOMAB BIOSCIENCE, published 2024)", "key": {"[1]": {"target": "T1, human IL-17RB protein (recombinant, R&D systems) (human)", "T1 construct": "Bought protein; also called hIL17RB", "T1 sequence (Q9NRM6 whole entry, looked up)": "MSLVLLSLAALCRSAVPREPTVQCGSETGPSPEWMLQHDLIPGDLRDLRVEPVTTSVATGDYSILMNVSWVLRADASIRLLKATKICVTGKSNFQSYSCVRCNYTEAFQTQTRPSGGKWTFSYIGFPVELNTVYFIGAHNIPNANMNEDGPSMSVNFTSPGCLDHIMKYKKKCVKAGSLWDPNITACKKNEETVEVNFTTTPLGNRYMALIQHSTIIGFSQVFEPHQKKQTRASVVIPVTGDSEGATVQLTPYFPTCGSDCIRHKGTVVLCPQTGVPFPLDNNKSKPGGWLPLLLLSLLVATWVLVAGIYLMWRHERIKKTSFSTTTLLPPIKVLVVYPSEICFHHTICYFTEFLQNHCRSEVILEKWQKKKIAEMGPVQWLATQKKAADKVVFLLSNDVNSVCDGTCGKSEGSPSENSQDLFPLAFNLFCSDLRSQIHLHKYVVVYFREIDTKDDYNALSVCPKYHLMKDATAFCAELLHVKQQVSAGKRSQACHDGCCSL", "experiment": "ELISA, coated receptor; SM17 at 0.0032 µg/mL; well 2"}, "[2]": {"target": "T2, human IL-17 receptor subunit D (human, UniProt Q8NFM7 28-299, limits assumed)", "T2 construct": "also called IL17RD; hIL 17RD", "T2 sequence (looked up)": "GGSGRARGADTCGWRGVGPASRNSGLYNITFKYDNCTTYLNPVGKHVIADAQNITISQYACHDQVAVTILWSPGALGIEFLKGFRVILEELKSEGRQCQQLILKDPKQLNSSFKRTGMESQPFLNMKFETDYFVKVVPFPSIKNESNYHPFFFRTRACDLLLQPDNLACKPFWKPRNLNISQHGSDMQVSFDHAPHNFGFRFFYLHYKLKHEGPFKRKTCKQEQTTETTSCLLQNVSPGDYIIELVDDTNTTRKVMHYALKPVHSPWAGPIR", "experiment": "ELISA, coated receptor; SM17 at 0.0032 µg/mL; well 2"}, "[3]": {"target": "T3, human IL-17 receptor subunit C (human, UniProt Q8NAC3-2 21-467, limits assumed)", "T3 construct": "also called IL17RC; hIL17RC", "T3 sequence (looked up)": "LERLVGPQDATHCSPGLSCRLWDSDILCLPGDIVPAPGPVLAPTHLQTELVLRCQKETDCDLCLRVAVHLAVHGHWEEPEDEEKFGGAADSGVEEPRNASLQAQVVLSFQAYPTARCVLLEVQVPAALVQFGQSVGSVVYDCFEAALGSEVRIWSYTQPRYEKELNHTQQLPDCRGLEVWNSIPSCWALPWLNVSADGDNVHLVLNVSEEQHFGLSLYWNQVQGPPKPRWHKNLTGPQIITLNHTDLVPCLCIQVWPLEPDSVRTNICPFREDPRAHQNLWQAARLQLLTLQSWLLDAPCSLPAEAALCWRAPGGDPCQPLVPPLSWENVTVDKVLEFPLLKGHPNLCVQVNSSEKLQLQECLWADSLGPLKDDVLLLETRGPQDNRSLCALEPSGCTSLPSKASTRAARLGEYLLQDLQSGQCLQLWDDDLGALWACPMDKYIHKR", "experiment": "ELISA, coated receptor; SM17 at 0.0032 µg/mL; well 2"}, "[4]": {"target": "T4, human IL-17 receptor subunit A (human, UniProt Q96F46 33-320)", "T4 construct": "also called IL17RA; hIL17RA", "experiment": "ELISA, coated receptor; SM17 at 0.0032 µg/mL; well 2"}, "[5]": {"target": "T5, human IL-17 receptor subunit E (human, UniProt Q8NFR9 24-454, limits assumed)", "T5 construct": "also called hIL17RE", "T5 sequence (looked up)": "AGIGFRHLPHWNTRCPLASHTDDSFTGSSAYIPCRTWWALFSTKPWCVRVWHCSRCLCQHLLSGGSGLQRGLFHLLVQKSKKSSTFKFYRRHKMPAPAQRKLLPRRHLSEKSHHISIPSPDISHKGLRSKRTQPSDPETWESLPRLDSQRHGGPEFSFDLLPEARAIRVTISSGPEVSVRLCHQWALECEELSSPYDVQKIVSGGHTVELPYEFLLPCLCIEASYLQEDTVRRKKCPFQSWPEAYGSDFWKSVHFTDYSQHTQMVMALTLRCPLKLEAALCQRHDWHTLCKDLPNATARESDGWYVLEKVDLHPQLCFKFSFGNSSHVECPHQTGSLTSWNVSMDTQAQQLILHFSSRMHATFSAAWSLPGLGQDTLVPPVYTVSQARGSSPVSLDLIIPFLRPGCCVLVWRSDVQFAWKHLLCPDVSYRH", "experiment": "ELISA, coated receptor; SM17 at 0.0032 µg/mL; well 2"}, "[6]": {"target": "T1, human IL-17RB protein (recombinant, R&D …)", "experiment": "ELISA, coated receptor; SM17 at 0.016 µg/mL; well 2"}, "[7]": {"target": "T2, human IL-17 receptor subunit D", "experiment": "ELISA, coated receptor; SM17 at 0.016 µg/mL; well 2"}, "[8]": {"target": "T3, human IL-17 receptor subunit C", "experiment": "ELISA, coated receptor; SM17 at 0.016 µg/mL; well 2"}, "[9]": {"target": "T4, human IL-17 receptor subunit A", "experiment": "ELISA, coated receptor; SM17 at 0.016 µg/mL; well 2"}, "[10]": {"target": "T5, human IL-17 receptor subunit E", "experiment": "ELISA, coated receptor; SM17 at 0.016 µg/mL; well 2"}, "[11]": {"target": "T6, cynomolgus monkey IL-17RB protein (recombinant, R&D systems) (cynomolgus monkey, UniProt A0A2K5TUK1 18-289)", "T6 construct": "also called cynomolgus IL17RB; Cyno-IL17RB", "T6 sequence": "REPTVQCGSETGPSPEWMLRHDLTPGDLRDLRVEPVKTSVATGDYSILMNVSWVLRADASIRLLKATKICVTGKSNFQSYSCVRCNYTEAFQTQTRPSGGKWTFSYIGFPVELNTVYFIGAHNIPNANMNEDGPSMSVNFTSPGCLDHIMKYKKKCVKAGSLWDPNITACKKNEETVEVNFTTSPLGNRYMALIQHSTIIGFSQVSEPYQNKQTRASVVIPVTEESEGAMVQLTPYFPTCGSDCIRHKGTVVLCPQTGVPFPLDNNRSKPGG", "experiment": "BLI (Octet RED96), SM17 captured via anti-human Fab CH1, IL17RB in solution; trial 2", "text": "Irrelevant antibody (SM03, anti-human CD22 chimeric IgG1 antibody, SinoMab BioScience Limited) was used as the control reference."}}}
{"binder": "SM17 (antibody, human IgG4 S228P, kappa, V domains shown, other paragraphs and claim 15 call the same entries VH and VL; also called humanized anti-IL17RB monoclonal antibody) VH: QVQLVQSGAEVKKPGASVKVSCKASGYTFISYWMNWVRQAPGQGLEWMGRIDPYDSEIQYNQKFKDRVTMTRDTSISTAYMELSRLRSDDTAVYYCARSGGFDWFAYWGQGTLVTVSS VL: DIQMTQSPSSLSASVGDRVTITCRASENINSNLAWYQQKPGKAPKLLLYDVTNLADGVPSRFSGSGSGTDYTLTISSLQPEDFATYYCQHFWGPPYTFGGGTKVEIKR", "values": [{"measurement": "OD 450 nm Absorption", "setting": "[1]", "value": 0.07, "unit": "OD450"}, {"measurement": "OD 450 nm Absorption", "setting": "[2]", "value": -0.04, "unit": "OD450"}, {"measurement": "OD 450 nm Absorption", "setting": "[3]", "value": -0.04, "unit": "OD450"}, {"measurement": "OD 450 nm Absorption", "setting": "[4]", "value": -0.03, "unit": "OD450"}, {"measurement": "OD 450 nm Absorption", "setting": "[5]", "value": -0.02, "unit": "OD450"}, {"measurement": "OD 450 nm Absorption", "setting": "[6]", "value": 0.3, "unit": "OD450"}, {"measurement": "OD 450 nm Absorption", "setting": "[7]", "value": 0.02, "unit": "OD450"}, {"measurement": "OD 450 nm Absorption", "setting": "[8]", "value": 0.02, "unit": "OD450"}, {"measurement": "OD 450 nm Absorption", "setting": "[9]", "value": -0.04, "unit": "OD450"}, {"measurement": "OD 450 nm Absorption", "setting": "[10]", "value": -0.04, "unit": "OD450"}, {"measurement": "Kd", "setting": "[11]", "value": 5.11, "unit": "nM"}, {"measurement": "koff", "setting": "[11]", "value": 0.000215, "unit": "s⁻¹"}, {"measurement": "kon", "setting": "[11]", "value": 42100, "unit": "M⁻¹ s⁻¹"}]}
